{"source": "paper PMC10767699", "about": "“Custom Design of a Humidifier Chamber for InMeso Crystallization” (Crystal Growth & Design, 2023)", "proteins": {"B1": {"name": "transmembrane aspartate transporter GltTk from Thermococcus kodakarensis (natural protein)", "chain": "MGKSLLRRYLDYPVLWKILWGLVLGAVFGLIAGHFGYAGAVKTYIKPFGDLFVRLLKMLVMPIVLASLVVGAASISPARLGRVGVKIVVYYLATSAMAVFFGLIVGRLFNVGANVNLGSGTGKAIEAQPPSLVQTLLNIVPTNPFASLAKGEVLPVIFFAIILGIAITYLMNRNEERVRKSAETLLRVFDGLAEAMYLIVGGVMQYAPIGVFALIAYVMAEQGVRVVGPLAKVVGAVYTGLFLQIVITYFILLKVFGIDPIKFIRKAKDAMITAFVTRSSSGTLPVTMRVAEEEMGVDKGIFSFTLPLGATINMDGTALYQGVTVLFVANAIGHPLTLGQQLVVVLTAVLASIGTAGVPGAGAIMLAMVLQSVGLDLTPGSPVALAYAMILGIDAILDMGRTMVNVTGDLAGTVIVAKTEKELDESKWISHHHHHHHH"}}, "target": "the molecule itself", "assay": "crystal structure; in meso (monoolein mesophase) crystallization of apo GltTk, 21 °C; space groups H3_(2) and P6_(3)22; one protomer in the asymmetric unit, trimer generated by crystal symmetry"}
{"protein": "B1", "values": [{"measurement": "stoichiometry N", "result": 3}]}
